From patent publication US20080044412A1, “Single-Domain Antibody Strengthening Fusion Protein Vh-Ldp-Ae” (INSTITUTE OF MEDICINAL BIOTECHNOLOGY CHINESE ACADEMY OF …, priority 2004, published 2008)
Values joined by “and” are separate entries in the source; they are usually repeats but may differ in a detail not shown here. Equal values may be shown once.

Columns and labels:
transplanted hepatoma 22 = test: Transplanted hepatoma 22 growth in mice; settings: for Inhibition rate / Tumor volume x ± s: tail vein, day 14
Description: Kunming mice, weighing between 18-22 g, were randomly separated into different groups of 10 mice each. On day 0, hepatoma 22 cells (1.5×10^6 cells/0.2 ml/mouse) diluted with saline were transplanted subcutaneously into the right axilla of mice. On day 1 (after 24 h), the therapy was started and VH-LDP-AE at different doses, LDM at 0.05 mg/kg, mitomycin (MMC) at 1 mg/kg were administered respectively to the tumor bearing mice (0.2 ml/mouse) by injection into the tail vein. Mice of control group were injected with saline. Diameters of the tumors were measured every 3 days during the experiment. Weights of the mice were recorded. The tumor volumes were calculated with the following formula: V=0.5ab^2, where a and b is the long and the perpendicular short diameters of the tumor, respectively. The curves of tumor growth were plotted and the inhibition rates were calculated.

cecum carcinoma Hce-8693 = settings: nude mice; cited from earlier work
PG cells = test: MTT cytotoxicity assay, PG; type: cell-based; settings: 72 h
Description: (§1) MTT assay was used. After digestion and counting, cells in exponential growth phase were seeded at 3000 cells/well in 96-well plates, and cultured at 37° C. in 5% CO2 for 24 hours. Drugs of various concentrations were added with 3 aliquots, and the cells were cultured for another 72 h. 50 μl of MTT (2 mg/ml) in serum-free RPMI 1640 were added into each well, and the cells were cultured at 37° C. for 4 h. Remove the culture medium gently; add 150 μl DMSO each well; incubate at room temperature for 15 min on a shaker; measure the absorbance at 560 nm on a microplate reader. Survival ratio and IC50 values were calculated according to the following equation: Survival ratio=(Atest−Ablank)/(Acontrol−Ablank)×100%.

KB cells = test: MTT cytotoxicity assay, KB; type: cell-based, human; settings: 72 h
Description: as §1

colon carcinoma 26 = settings: cited from earlier work
hepatoma Bel-7402 = settings: nude mice; cited from earlier work
HT-1080 cells = test: MTT cytotoxicity assay, HT-1080; type: cell-based; settings: 72 h
Description: as §1

[1] = tested on: human hepatoma SMMC-7721 cells; test: ELISA immunoreactivity with fixed SMMC-7721 cells; type: binding; settings: FIG. 5
Description: (§2) Immunoreactivity of fusion protein VH-LDP was detected by ELISA. At first, type IV collagenase or tumor cells was coated or fixed to 96-well ELISA plates: well was coated with 100 μl of type IV collagenase (10 μg/ml, diluted by PBS) and the plates were stored at 4° C. overnight; Human hepatoma SMMC-7721 cells or human KB cells were seeded at 10^4/well in 96-well plates and cultured for 24 h, washed with PBS for 3 times, added 0.05% cold (4° C.) Glutaraldehyde and fixed for 15 min. Then the coated or fixed plates were washed with PBS 3 times, and blocked with 200 μl/well of 1% bovine serum albumin (BSA)/PBS at 4° C. overnight. The plates were washed 3 times with PBS. Then 200 μl of serial concentrations of fusion protein VH-LDP were added into each well of the plates and incubated for 2 hours at 37° C. Washing the plates 3 times with 0.05% Tween 20/PBS (PBST), adding 50 μl of anti-His6-Tag monoclonal antibody diluted 1:1500 to each well, and incubating at 37° C. for 1 h. Washing the plates 3 times with PBST, adding 50 μl of HRP conjugated goat anti-mouse IgG (at 1:2000 dilution), and incubating at 37° C. for 1 hour. Washing the plates with PBST 6 times, adding 100 μl of OPD substrate reaction solution to each well, incubating the plates at room temperature for 10 min in the dark. […] Then the optical density (OD) of each well was measured at 490 nm using a microplate reader.

[2] = tested on: type IV collagenase secreted by HT-1080 cells; test: Gelatin zymography in HT-1080 cells; type: cell-based; settings: 24 h, 25, 50, 100 μM (FIG. 8), dependent on concentration
Description: Gelatin zymography protocol was used. Exponentially growing HT-1080 cells were seeded at 10^5/well in 24-well plates and incubated at 37° C. in 5% CO2. After 24 h, the culture medium was removed and 1 ml serum-free RPMI 1640 medium was added for washing twice. Add 120 μl of serum-free RPMI 1640 medium and 30 μl of fusion protein VH-LDP as prepared in example 3 to each well, and add 30 μl PBS to control well. Culturing the cells at 37° C. for 24 h. Harvest the culture medium, and centrifuging at 500 g for 5 min. Then take the supernatant for non-denaturalization electrophoresis on SDS-PAGE. Wash the gels with distilled water 3 times. Put the gels into 100 ml of 2.5% TritonX-100, shake on a shaker for 30 min at low speed. Then Wash the gels 2 times with distilled water; repeat the washing process with TritonX-100 above. The gels was washed with distilled water 2 times, and incubated at 37° C. for 16-18 h in 100 ml of gelatinase buffer (50 mM Tris-HCl, pH 7.5, 200 mM NaCl, 10 mM CaCl2, 1 μM ZnCl2). The gels were stained with Coomassie-brilliant blue R-250 and destained with acetic acid: methanol:water (10:45:45). The negative stained bands were observed.

[3] = tested on: solid tumor of mouse hepatoma 22; test: Immunohistochemical (SABC) staining of mouse hepatoma sections; type: binding; settings: FIG. 7
Description: (§3) Immunohistochemical (IHC) staining was performed by streptavidin-biotin-peroxidase complex (SABC) staining with SABC kit (Boster Company). The sections were blocked by normal goat serum for 20 min at room temperature and the excessive liquid was removed. The sections without washing were added with diluted said VH-LDP fusion protein as prepared in example 3 and incubated at room temperature; then diluted anti-His6-tag antibody and biotinylated goat-anti-mouse IgG were added in turn. Finally SABC reagent was added. DAB kit was used as a chromogen for visualized reaction at room temperature. The sections were counter-stained by hematoxylin, dehydrated, cleared, sealed, and observed with microscope.

[4] = tested on: mouse normal liver sections; test: Immunohistochemical (SABC) staining of mouse normal liver sections; type: binding; settings: FIG. 7
Description: as §3

type IV collagenase = test: ELISA immunoreactivity with type IV collagenase; type: binding; settings: FIG. 4
Description: as §2

[5] = State of refolded fusion protein in PBS solution; type: physicochemical
Description: The inventors attempted to make fusion gene in the form of VH-LDP by fusing VH domain against type IV collagenase to apoprotein LDP of LDM, and then expressing the fusion protein in E. coli.
The fusion protein VH-LDP after purification was refolded: the purified protein was diluted to a final concentration of 15 μM with eluting buffer mentioned above, and β-mercaptoethanol was added to a final concentration of 10 mM. After being stored at room temperature for 30 min, the sample was placed in a dialysis bag and dialyzed against at least 50 vol. of refolding buffer 1 (50 mM Tris-HCl pH 8.0, 1 mM EDTA, 200 mM NaCl, 6 M urea). And the following dialysis was against the same buffer with step-wise reduction in the urea concentration (3M, 2M, 1M, 0.5M, and 0M). On a 1-M stage, 750 μM of glutathione (GSSG) and 400 mM of L-Arginine were added to the dialysis buffer. Then the sample was dialyzed against 50 vol. of PBS solution (pH 7.4). Each dialysis was performed for 12 h and with buffer changed twice. All dialysis was performed at 4° C. After dialysis, the sample was centrifuged at 10,000 g for 30 min at 4° C. and the supernatant was collected. After being condensed, the active fusion protein VH-LDP was obtained and stored at −20° C. for later use.

[6] = tested on: human colon carcinoma HT-29 cells; test: MTT combination assay on HT-29 cells (CDI); type: cell-based; settings: HT-29, MTT
Description: MTT assay was used. After trypsin-EDTA digestion, the human colon carcinoma HT-29 cells in exponential growth were seeded at 4000 cells/well in 96-well plates, and cultured for 24 hours. Then add 20 μl of different concentrations of hydroxylcamptothecin or 5-fluorouracil; 8 hours later, add different concentrations of VH-LDP-AE. Continue to culture the cells at 37° C. in 5% CO2 for 72 h. Add 50 μl of MTT at concentration of 2 mg/ml, culture the cells at 37° C. for 4 hours. Then remove the supernatant; add 150 μl DMSO each well; ten minutes later, measure the absorbance at 560 nm on a microplate reader. In cancer pharmacology, interactions of drug combination were evaluated by coefficient of drug interaction (CDI). There existed synergistic effects with CDI<1, and there existed very significant ones with CDI<0.7. […] It was usual that monoclonal antibodies were combined with anti-cancer drugs.

[7] = tested on: bFGF-stimulated angiogenesis; test: Chick embryo allantoic membrane (CAM) anti-angiogenesis assay; type: in vivo; settings: 72 h, 0.5 μg/egg (FIG. 10)
Description: Anti-angiogenic activity of VH-LDP-AE was examined in chick embryoallantoic membrane assay (CAM). The surface of 7-day-old post-fertilization chick eggs (White Leghorn) in a 60% humidified incubator at 37° C. was sterilized and the CAM was […]) exposed by cutting a window (2 cm^2) on the egg shell using the false air-sac technique. After 24 h, 10 μl of bFGF was dipply added to agarose disks with the energized fusion protein VH-LDP-AE at various concentrations which was prepared as mentioned in Example 7, and then the disks were placed on top of the CAM. After the windows were sealed with transparent tape, the eggs were incubated for further 72 h.

Molecule: CO[C@@]12[C@H](COC(N)=O)C3=C(C(=O)C(C)=C(N)C3=O)N1C[C@@H]1N[C@@H]12 [MMC, mitomycin]
- Body weight begin (transplanted hepatoma 22; 1 mg/kg, begin): 18.82 g
- Body weight end (transplanted hepatoma 22; 1 mg/kg, end (day 14)): 29.29 g
- Inhibition rate (transplanted hepatoma 22; 1 mg/kg): 51.5^Δ %
- Tumor volume x ± s (transplanted hepatoma 22; 1 mg/kg): 2.23 ± 2.15 cm^3
- Inhibition rate (transplanted hepatoma 22; 1 mg/kg, listed as mitomycin): 51.5%

Molecule: lidamycin [LDM]
- growth of human cancer xenograft cecum carcinoma Hce-8693 (cecum carcinoma Hce-8693): potent inhibitory effect
- IC50 (PG cells): 6.3 pM
- IC50 (KB cells): 1.08 pM
- growth of colon carcinoma 26 in mice (colon carcinoma 26): remarkably inhibited
- growth of human cancer xenograft hepatoma Bel-7402 (hepatoma Bel-7402): potent inhibitory effect
- IC50 (HT-1080 cells): 2.21 pM
- Inhibition rate (transplanted hepatoma 22; 0.05 mg/kg): 79.6% and 79.6^ΔΔ %
- Tumor volume x ± s (transplanted hepatoma 22; 0.05 mg/kg): 0.94 ± 0.53 cm^3
- maximal tolerated dose (transplanted hepatoma 22; mice): 0.05 mg/kg

B1: VH-LDP: VH domain of anti-type IV collagenase mAb 3G11, GGGGS spacer, lidamycin apoprotein LDP and His6-Tag; SEQ ID NO: 2 (protein)
chain: MQVKLQQSGTEVVKPGASVKLSCKASGYIFTSYDIDWVRQTPEQGLEWIGWIFPGEGSTEYNEKFKGRATLSVDKSSSTAYMELTRLTSEDSAVYFCARGDYYRRYFDLWGQGTTVTVSSGGGGSAPAFSVSPASGLSDGQSVSVSVSGAAAGETYYIAQCAPVGGQDACNPATATSFTTDASGAASFSFVVRKSYTGSTPEGTPVGSVDCATAACNLGAGNSGLDLGHVALTFGLEHHHHHH
modifications: fusion protein of Vh and LDP
- binding activity to human hepatoma SMMC-7721 cells [1]: positive
- inhibition of type IV collagenase activity secreted by cancer cells [2]: inhibit significantly
- immunohistochemical staining in mouse hepatoma sections [3]: positively stained
- immunohistochemical staining in mouse normal liver sections [4]: negatively stained
- binding activity to type IV collagenase (type IV collagenase): positive
- solubility after refolding [5]: soluble in PBS solution
- fraction existing in monomer state ([5]; after refolding): 75%

B2: VH-LDP-AE (conjugate)
chain: B1 chain
modifications: AE chromophore assembled; fusion protein of Vh and LDP
- coefficient of drug interaction (CDI) ([6]; 10 μM of 5-fluorouracil plus 3 ng/ml of VH-LDP-AE): < 0.7
- coefficient of drug interaction (CDI) ([6]; hydroxylcamptothecin (1 μM) plus VH-LDP-AE (3 ng/ml)): < 0.7
- Inhibition rate (transplanted hepatoma 22; 0.125 mg/kg): 88.1% and 88.1*^ΔΔ %
- Tumor volume x ± s (transplanted hepatoma 22; 0.125 mg/kg): 0.55 ± 0.24 cm^3
- Inhibition rate (transplanted hepatoma 22; 0.25 mg/kg): 95.9% and 95.9**^ΔΔ %
- Tumor volume x ± s (transplanted hepatoma 22; 0.25 mg/kg): 0.19 ± 0.21 cm^3
- effect on growth of hepatoma 22 in mice (transplanted hepatoma 22; both 0.25 mg/kg and 0.125 mg/kg, more potent than free lidamycin 0.05 mg/kg (FIG. 11)): inhibited or retarded the growth
- body weight loss and side-effects during the experiments (transplanted hepatoma 22; mouse, in vivo): No body weight loss and other severe side-effects were found
- suppression of angiogenesis stimulated by bFGF [7]: significantly suppress angiogenesis
